The target of assay [1] is HLA-A*03:01. The assay is described as follows: IEDB peptide-MHC binding, cellular MHC/competitive/fluorescence; ≥ and ≤ were set here for values at or beyond the usual limits of such assays.
In assay [2] the target is HLA-A*11:01. Described as above.
Assay [3] deals with HLA-A*31:01. Described as above.
The target of assay [4] is HLA-A*33:01. Described as above.
In assay [5] the target is HLA-A*68:01. Described as above.
For assay [6], the target named is HLA-B*18:01. The description is as above. The following applies: source organism: Mammarenavirus guanaritoense.
Assay [7] deals with HLA-B*44:02. The description is as above. To be noted: source organism: Mammarenavirus guanaritoense.
Assay [8] addresses HLA-B*44:03. The assay is described as above. The following applies: source organism: Mammarenavirus guanaritoense.
The target of assay [9] is HLA-B*45:01. The description is as above. To be noted: source organism: Mammarenavirus guanaritoense.
For assay [10], the target named is HLA-B*40:01. The assay is described as follows: IEDB peptide-MHC binding, purified MHC/competitive/radioactivity; ≥ and ≤ were set here for values at or beyond the usual limits of such assays. The following applies: source organism: Mammarenavirus guanaritoense.
Assay [11] has as its target HLA-B*40:02. Described as above. The following applies: source organism: Mammarenavirus guanaritoense.
For assay [12], the target named is HLA-A*11:01. The assay is described as above. The following applies: source organism: Mammarenavirus lassaense.
In assay [13] the target is HLA-A*31:01. The description is as above.
The target of assay [14] is HLA-A*33:01. The description is as above.
Assay [15] has as its target HLA-A*01:01. The assay is described as follows: IEDB peptide-MHC binding, cellular MHC/competitive/fluorescence; ≥ and ≤ were set here for values at or beyond the usual limits of such assays. The following applies: source organism: Vaccinia virus WR.
The target in assay [16] is HLA-A*26:01. The description is as above. The following applies: source organism: Vaccinia virus WR.
The target of assay [17] is HLA-A*29:02. Described as above. To be noted: source organism: Vaccinia virus WR.
Assay [18] addresses HLA-A*23:01. Put plainly: IEDB peptide-MHC binding, purified MHC/competitive/radioactivity; ≥ and ≤ were set here for values at or beyond the usual limits of such assays. The following applies: source organism: Vaccinia virus WR.
For assay [19], the target named is HLA-A*24:02. The description is as above. The following applies: source organism: Vaccinia virus WR.
Assay [20] has as its target HLA-A*30:02. The description is as above. The following applies: source organism: Vaccinia virus WR.
For assay [21], the target named is HLA-A*02:01. The assay is described as follows: IEDB peptide-MHC binding, cellular MHC/competitive/fluorescence; ≥ and ≤ were set here for values at or beyond the usual limits of such assays. The following applies: source organism: Vaccinia virus WR.
The target in assay [22] is HLA-A*30:02. The assay is described as above. To be noted: source organism: Vaccinia virus WR.
The target in assay [23] is HLA-A*68:02. The assay is described as above. To be noted: source organism: Vaccinia virus WR.
Assay [24] concerns the target HLA-A*02:02. Put plainly: IEDB peptide-MHC binding, purified MHC/competitive/radioactivity; ≥ and ≤ were set here for values at or beyond the usual limits of such assays. To be noted: source organism: Vaccinia virus WR.
In assay [25] the target is HLA-A*02:03. Described as above. The following applies: source organism: Vaccinia virus WR.
The target of assay [26] is HLA-A*02:06. The description is as above. To be noted: source organism: Vaccinia virus WR.
Assay [27] concerns the target HLA-B*27:05. The assay is described as above. The following applies: source organism: Mammarenavirus choriomeningitidis.
Assay [28] deals with HLA-A*02:01. The description is as above. To be noted: source organism: Vaccinia virus WR.
Assay [29] concerns the target HLA-A*03:01. The assay is described as above.
The target in assay [30] is HLA-A*68:01. The assay is described as above.
Assay [31] concerns the target HLA-A*02:02. The assay is described as follows: IEDB peptide-MHC binding, cellular MHC/competitive/fluorescence; ≥ and ≤ were set here for values at or beyond the usual limits of such assays. The following applies: source organism: Vaccinia virus WR.
Assay [32] addresses HLA-A*02:03. The description is as above. The following applies: source organism: Vaccinia virus WR.
In assay [33] the target is HLA-A*23:01. The description is as above. The following applies: source organism: Vaccinia virus WR.
Assay [34] has as its target HLA-B*07:02. The assay is described as above.
The target of assay [35] is HLA-B*51:01. Described as above.
The target in assay [36] is HLA-B*35:01. Put plainly: IEDB peptide-MHC binding, purified MHC/competitive/radioactivity; ≥ and ≤ were set here for values at or beyond the usual limits of such assays.
Assay [37] deals with HLA-B*53:01. The description is as above.
Assay [38] has as its target HLA-B*54:01. The description is as above.
Assay [39] deals with HLA-A*24:02. Put plainly: IEDB peptide-MHC binding, cellular MHC/competitive/fluorescence; ≥ and ≤ were set here for values at or beyond the usual limits of such assays. To be noted: source organism: Vaccinia virus WR.
Assay [40] concerns the target HLA-A*26:01. The assay is described as follows: IEDB peptide-MHC binding, purified MHC/competitive/radioactivity; ≥ and ≤ were set here for values at or beyond the usual limits of such assays. To be noted: source organism: Vaccinia virus WR.
The target in assay [41] is HLA-A*01:01. Described as above. To be noted: source organism: Vaccinia virus WR.
The target in assay [42] is HLA-A*29:02. The assay is described as above. The following applies: source organism: Vaccinia virus WR.
Assay [43] addresses HLA-A*68:02. Described as above. To be noted: source organism: Vaccinia virus WR.
Setting [44] is: source organism: Mammarenavirus juninense.
Setting [45] is: source organism: Mammarenavirus lassaense.
Where [46] appears, read: source organism: Vaccinia virus WR.
The mark [47] stands for this setting: source organism: Mammarenavirus machupoense.
[48] abbreviates: source organism: Mammarenavirus choriomeningitidis.
Where [49] appears, read: source organism: Mammarenavirus guanaritoense.

Usually IC50 stands for the concentration that gives 50% inhibition.

As to ACQEAVKLK, the half-inhibitory concentration (IC50) in assay [1] (setting [44]) was 16.7 µM; in assay [2] (setting [44]), 6.7 µM; in [3] (setting [44]), at least 70 µM; in [4] (setting [44]), at least 70 µM; in [5] (setting [44]), at least 70 µM.
On to ADKNLIKCS, for which the IC50 in [6] was at least 70 µM; in [7] it was at least 70 µM; in [8], at least 70 µM; in assay [9], at least 70 µM; in assay [10] it was 316 nM; in assay [11] it was 102 nM.
For ALMSIISTFH, the IC50 was 23.8 µM in [5] (setting [45]), 618 nM in assay [12], 3680 nM in assay [13] (setting [45]) and 3610 nM in assay [14] (setting [45]).
Consider AQQFCQYLI, for which the IC50 came out at 32.4 µM in assay [15]; 49 µM in assay [16]; 45.4 µM in assay [17]; 85 nM in [18]; 313 nM in assay [19]; 748 nM in assay [20].
For FQESFYEDI, the IC50 is at least 70 µM in assay [15]; 12.9 µM in [21]; at least 70 µM in assay [16]; 58.2 µM in assay [17]; at least 70 µM in [22]; 36.8 µM in assay [23]. Moreover, the IC50 is 2280 nM in assay [24]; 4420 nM in [25]; 185 nM in [26]; 263 nM in [18]; 440 nM in [19].
For the sequence IIVLIIITSI, the IC50 in assay [27] came out at 1880 nM.
Consider LLTACTIFYI, for which the IC50 was 18.8 µM in [2] (setting [46]); 7.39 µM in assay [4] (setting [46]); 5.7 nM in assay [28]; 829 nM in assay [29] (setting [46]); 627 nM in [13] (setting [46]); 4370 nM in assay [30] (setting [46]).
Turning to LQQNNSFII, the 50% inhibitory concentration (IC50) in [15] was determined as 40.2 µM; in [31] it was 11.7 µM; in assay [32] it was 5.17 µM; in assay [33], 8.91 µM; in assay [16], 11.5 µM; in assay [17], 18.6 µM. Besides, the IC50 in assay [22] came out at 40.8 µM; in assay [23] it was 69.8 µM; in assay [28], 1600 nM; in assay [26] it was 423 nM; in assay [19] it was 2360 nM.
As to MCISLSTAI, the IC50 in assay [34] (setting [45]) was 24 µM; in assay [35] (setting [45]) it was 6.76 µM; in [36] (setting [45]), 211 nM; in assay [37] (setting [45]) it was 1430 nM; in assay [38] (setting [45]) it was 192 nM.
On to MLNNSFYYM, for which the IC50 in [34] (setting [47]) came out at 29.7 µM; in assay [35] (setting [47]) it was 6.95 µM; in assay [36] (setting [47]) it was 501 nM; in assay [37] (setting [47]), 851 nM; in assay [38] (setting [47]), 4960 nM.
For the sequence NQGNILMDSI, the IC50 is 24 µM in assay [15]; 9.85 µM in assay [21]; at least 70 µM in assay [33]; 67.2 µM in assay [39]; 7.49 µM in assay [17]; 27.8 µM in assay [23]. Besides, the concentration for half-maximal inhibition (IC50) came out at 3940 nM in assay [24]; 4040 nM in assay [25]; 3090 nM in [26]; 2780 nM in [40]; 3950 nM in [20].
With RQVSVKLLI, the IC50 in [15] was 23.8 µM; in assay [31], 17.9 µM; in [16] it was 6.34 µM; in assay [17], at least 70 µM; in assay [23], 15.1 µM; in assay [28] it was 250 nM. Besides, the IC50 worked out at 254 nM in [25]; 0.13 nM in assay [26]; 835 nM in assay [18]; 2540 nM in [19]; 519 nM in [20].
SQIFNIISYI: the IC50 is 9.51 µM in assay [39]; 801 nM in [41]; 111 nM in [28]; 62 nM in assay [24]; 181 nM in assay [25]; 23 nM in assay [26]. Besides, the IC50 in assay [18] worked out at 2380 nM; in assay [40] it was 397 nM; in assay [42] it was 1150 nM; in assay [20], 671 nM; in assay [43] it was 48 nM.
As to TLMSIVSSLH, the IC50 in assay [2] (setting [48]) is 9.54 µM; in assay [3] (setting [48]), 11.4 µM; in assay [4] (setting [48]) it was at least 70 µM; in assay [5] (setting [48]), 6.62 µM; in assay [29] (setting [48]), 3950 nM.
For TSAYLISIFL, the concentration for half-maximal inhibition (IC50) in assay [1] (setting [48]) was 9.21 µM; in assay [2] (setting [48]), at least 70 µM; in assay [3] (setting [48]), 3.1 µM; in assay [14] (setting [48]), 2180 nM; in [30] (setting [48]), 1150 nM.
Turning to TSFYLISIFL, the concentration for half-maximal inhibition (IC50) was 8.09 µM in assay [2] (setting [45]), at least 70 µM in [3] (setting [45]), 31.1 µM in assay [4] (setting [45]) and 1910 nM in assay [30] (setting [45]).
Regarding TTSLFLHLV, the IC50 in assay [2] (setting [49]) came to 15.4 µM; in assay [5] (setting [49]), 11.1 µM; in [13] (setting [49]) it was 726 nM; in [14] (setting [49]), 2270 nM.
For the sequence VQYRILPMII, the IC50 in assay [15] was 34.6 µM; in assay [21] it was 9.33 µM; in assay [31], 10.1 µM; in [16] it was at least 70 µM; in assay [17], at least 70 µM; in [22], 7.85 µM. In addition, the IC50 in [23] was 21.4 µM; in assay [25] it was 606 nM; in assay [26], 395 nM; in [18] it was 567 nM; in assay [19], 1610 nM.

Source of the values: the Immune Epitope Database (IEDB).
